Changes are numbered by the printed parent chain. Each block holds one molecule with its values, some of them ahead of it.
How the values were obtained:
[1] = target: Kae1 (M. jannaschii Kae1, residues 1-328 of MJ1130) (Methanocaldococcus jannaschii, UniProt Q58530); assay: ATP-binding assay
[2] = target: T1, GST-Kae1 T88R (M. jannaschii) (Methanococcus jannaschii, UniProt Q58530 1-328, T88R); assay: pull-down
T1 sequence (looked up): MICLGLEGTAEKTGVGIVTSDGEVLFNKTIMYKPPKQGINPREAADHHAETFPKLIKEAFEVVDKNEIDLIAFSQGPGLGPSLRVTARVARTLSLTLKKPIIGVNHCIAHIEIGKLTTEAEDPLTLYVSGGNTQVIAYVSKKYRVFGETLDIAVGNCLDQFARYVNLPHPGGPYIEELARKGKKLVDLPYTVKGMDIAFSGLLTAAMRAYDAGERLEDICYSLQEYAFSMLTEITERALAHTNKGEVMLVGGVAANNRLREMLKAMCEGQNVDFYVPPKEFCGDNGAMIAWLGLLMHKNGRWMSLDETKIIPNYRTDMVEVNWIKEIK

[3] = target: T2, GST-Kae1 T88R/R91E (M. jannaschii) (Methanococcus jannaschii, UniProt Q58530 1-328, T88R | R91E); assay: pull-down
T2 sequence (looked up): T1 sequence (looked up) with R91E

[4] = target: T3, GST-Kae1 T88R/T92R (M. jannaschii) (Methanococcus jannaschii, UniProt Q58530 1-328, T88R | T92R); assay: pull-down
T3 sequence (looked up): T1 sequence (looked up) with T92R

[5] = target: T4, GST-Kae1 (residues 1-328 of Methanococcus jannaschii MJ1130) (Methanococcus jannaschii, UniProt Q58530 1-328); assay: pull-down
T4 sequence (looked up): T1 sequence (looked up) with R88T

Sequence of Kae1 (M. jannaschii Kae1, residues 1-328 of MJ1130) (Q58530 1-328): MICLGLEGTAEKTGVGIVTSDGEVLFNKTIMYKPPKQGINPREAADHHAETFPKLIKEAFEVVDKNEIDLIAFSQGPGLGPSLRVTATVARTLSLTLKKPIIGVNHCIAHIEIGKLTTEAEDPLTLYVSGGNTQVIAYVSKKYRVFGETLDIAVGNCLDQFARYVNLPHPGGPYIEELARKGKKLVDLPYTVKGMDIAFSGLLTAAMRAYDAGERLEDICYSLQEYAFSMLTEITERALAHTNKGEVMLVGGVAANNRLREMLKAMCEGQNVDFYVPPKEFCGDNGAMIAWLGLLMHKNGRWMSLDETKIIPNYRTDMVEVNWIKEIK

- Kd [1]: 27 µM
Molecule: Nc1ncnc2c1ncn2[C@@H]1O[C@H](COP(=O)(O)OP(=O)(O)OP(=O)(O)O)[C@@H](O)[C@H]1O [ATP]

- binding result [2]: binds
- binding result [3]: binds
- binding result [4]: binds
- binding result [5]: binds
B1: Bud32 (residues 328-535 of Methanococcus jannaschii MJ1130), untagged (domain or fragment, UniProt Q58530 328-535, looked up)
chain: KGKKRKIPEHLIGKGAEADIKRDSYLDFDVIIKERVKKGYRDERLDENIRKSRTAREARYLALVKDFGIPAPYIFDVDLDNKRIMMSYINGKLAKDVIEDNLDIAYKIGEIVGKLHKNDVIHNDLTTSNFIFDKDLYIIDFGLGKISNLDEDKAVDLIVFKKAVLSTHHEKFDEIWERFLEGYKSVYDRWEIILELMKDVERRARYVE

Reference: publication PMC3098719 (Molecular cell, 2008)
